For orientation: Kd means the free concentration of one partner at which half of the binding sites on the other are occupied at equilibrium, for simple one-to-one binding. Lower therefore signals higher affinity.

The results in this text go back to PMC11674972.

“And” between values parts separate entries of the source, which are not always exact repeats. Equal values may be shown once.

Test [1] deals with FcγRI (Biotinylated Human CD64 Protein, His, Avitag) (human) (UniProt P12314). Description: SPR; Biacore T200; biotinylated FcγRI immobilised on streptavidin chip SA; AVT 1.875-30 nM; 1x HBS-EP pH 7.4, 22 °C; double referenced; steady-state affinity algorithm. Background: SPR reads the build-up and loss of mass on a sensor chip optically.
Test [2] has the same target. Description: SPR; Biacore T200; biotinylated FcγRI immobilised on streptavidin chip SA; AVT 1.875-30 nM; 1x HBS-EP pH 7.4, 22 °C; 1:1 Langmuir binding model (fit poorer than the heterogeneous ligand model).
Test [3] shares this target. Description: SPR; Biacore T200; biotinylated FcγRI immobilised on streptavidin chip SA (target 200 RU); AVT 1.875-30 nM injected 60 s at 50 uL/min; 1x HBS-EP pH 7.4, 22 °C; double referenced; heterogeneous ligand kinetics model.

UniProt P12314, sequence (P12314 16-292): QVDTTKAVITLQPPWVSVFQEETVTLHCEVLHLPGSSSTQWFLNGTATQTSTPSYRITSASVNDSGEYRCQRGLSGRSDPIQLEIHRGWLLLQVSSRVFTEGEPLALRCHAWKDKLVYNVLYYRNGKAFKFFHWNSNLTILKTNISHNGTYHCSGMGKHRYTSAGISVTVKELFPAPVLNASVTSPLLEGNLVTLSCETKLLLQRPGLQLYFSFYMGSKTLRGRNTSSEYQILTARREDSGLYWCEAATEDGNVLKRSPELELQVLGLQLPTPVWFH

In turn, Bevacizumab (Avastin) (antibody) had a Kd in test [1] of 13500 pM. For the same substance, the Kd in test [2] turned out to be 420 pM. For the same substance, in test [3], the KD, set 1 (heterogeneous ligand model) was 2.67 pM and 1.55 pM and 2.59 pM; the KD, set 1 (heterogeneous ligand model), mean amounted to 2.27 pM; the ka, set 1 (heterogeneous ligand model) is 333000 M⁻¹ s⁻¹ and 276000 M⁻¹ s⁻¹ and 335000 M⁻¹ s⁻¹; the ka, set 1 (heterogeneous ligand model), mean came out at 315000 M⁻¹ s⁻¹. Besides, in test [3], the kd, set 1 (heterogeneous ligand model) was 8.9e-07 s⁻¹ and 4.27e-07 s⁻¹ and 8.67e-07 s⁻¹; the kd, set 1 (heterogeneous ligand model), mean came to 7.28e-07 s⁻¹.
